Reference: PMC6060420, “Persulfide Dioxygenase From Acidithiobacillus caldus: Variable Roles of Cysteine Residues and Hydrogen Bond Networks of the Active Site” (Frontiers in Microbiology, 2018)

What was measured:
AcPDO = target: T1, AcPDO (Acidithiobacillus caldus, UniProt A0A2P9DTT9); experiment: MALDI-TOF MS of tryptic peptides; format: binding; details: covalent; cysteine-GSH adducts at C87, C224, C137 after […] min with […] GSSH, pH […]
T1 construct: gene pdo

[1] = target: persulfide dioxygenase from Acidithiobacillus caldus C-SH12 (AcPDO) (Acidithiobacillus caldus C-SH12); experiment: SEC; gel permeation chromatography, Superose 6 HR 10/30, previously frozen AcPDO, 2 M guanidinium chloride in 150 mM Tris/HCl pH 8, after 1 h at 25°C, 0.5 ml/min; tetramer to dimers
[2] = target: persulfide dioxygenase from Acidithiobacillus caldus C-SH12 (AcPDO) (Acidithiobacillus caldus C-SH12); experiment: SEC; gel permeation chromatography, Superose 6 10/300 on an Äkta system, freshly prepared AcPDO (0.5 mg protein); standards cytochrome c, conalbumin, aldolase, catalase
[3] = target: persulfide dioxygenase from Acidithiobacillus caldus C-SH12 (AcPDO) (Acidithiobacillus caldus C-SH12); experiment: SDS-PAGE with Western blot; 10% acrylamide Tris-tricine SDS gel of purified AcPDO, detection with HRP-conjugated anti-Strep-tag antibody
[4] = target: persulfide dioxygenase from Acidithiobacillus caldus C-SH12 (AcPDO) (Acidithiobacillus caldus C-SH12); experiment: native gel or EMSA; gel of urea-treated AcPDO (Supplementary Figure S6B), urea up to 8 M; 54-kDa dimer band

T1 sequence (A0A2P9DTT9 1-235 limits assumed): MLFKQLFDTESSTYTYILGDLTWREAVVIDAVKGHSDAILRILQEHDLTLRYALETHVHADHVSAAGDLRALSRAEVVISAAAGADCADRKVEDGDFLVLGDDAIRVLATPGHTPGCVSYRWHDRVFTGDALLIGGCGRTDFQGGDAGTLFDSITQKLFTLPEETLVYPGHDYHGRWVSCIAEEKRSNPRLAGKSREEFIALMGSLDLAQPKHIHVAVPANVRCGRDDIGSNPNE

Row | Compound | MALDI-TOF MS of tryptic peptides (AcPDO) | stoichiometry N [1] | stoichiometry N [2] [subunits] | stoichiometry N [3] | stoichiometry N [4]
1 | N[C@@H](CCC(=O)N[C@@H](CSS)C(=O)NCC(=O)O)C(=O)O [GSSH] | cysteine-GSH adducts were identified after the enzyme was incubated with GSSH | – | – | – | –
2 | persulfide dioxygenase from Acidithiobacillus caldus C-SH12 (AcPDO) (enzyme) | – | 2 | 3.7 | 2 | 2
